From PMC5490006 (Nature Communications, 2017)

Columns and labels:
Mcm6 = molecular target: T1, Mcm6 (budding yeast, UniProt P53091 1-1017); assay: pull-down; Cdt1 FLAG held on M2 anti-FLAG agarose, Mcm6 fl or ΔC in solution; 10 μg of each protein, buffer B, 60 min at 4 °C; eluted with FLAG peptide; Coomassie; details: both partners purified
T1 construct: Mcm6, subunit of the budding yeast MCM (Mcm2-7), expressed as an individual subunit; called Mcm6 fl and the full-length protein; also called Mcm6 fl; full-length Mcm6; source: E. coli, purified
T1 sequence (P53091 whole entry): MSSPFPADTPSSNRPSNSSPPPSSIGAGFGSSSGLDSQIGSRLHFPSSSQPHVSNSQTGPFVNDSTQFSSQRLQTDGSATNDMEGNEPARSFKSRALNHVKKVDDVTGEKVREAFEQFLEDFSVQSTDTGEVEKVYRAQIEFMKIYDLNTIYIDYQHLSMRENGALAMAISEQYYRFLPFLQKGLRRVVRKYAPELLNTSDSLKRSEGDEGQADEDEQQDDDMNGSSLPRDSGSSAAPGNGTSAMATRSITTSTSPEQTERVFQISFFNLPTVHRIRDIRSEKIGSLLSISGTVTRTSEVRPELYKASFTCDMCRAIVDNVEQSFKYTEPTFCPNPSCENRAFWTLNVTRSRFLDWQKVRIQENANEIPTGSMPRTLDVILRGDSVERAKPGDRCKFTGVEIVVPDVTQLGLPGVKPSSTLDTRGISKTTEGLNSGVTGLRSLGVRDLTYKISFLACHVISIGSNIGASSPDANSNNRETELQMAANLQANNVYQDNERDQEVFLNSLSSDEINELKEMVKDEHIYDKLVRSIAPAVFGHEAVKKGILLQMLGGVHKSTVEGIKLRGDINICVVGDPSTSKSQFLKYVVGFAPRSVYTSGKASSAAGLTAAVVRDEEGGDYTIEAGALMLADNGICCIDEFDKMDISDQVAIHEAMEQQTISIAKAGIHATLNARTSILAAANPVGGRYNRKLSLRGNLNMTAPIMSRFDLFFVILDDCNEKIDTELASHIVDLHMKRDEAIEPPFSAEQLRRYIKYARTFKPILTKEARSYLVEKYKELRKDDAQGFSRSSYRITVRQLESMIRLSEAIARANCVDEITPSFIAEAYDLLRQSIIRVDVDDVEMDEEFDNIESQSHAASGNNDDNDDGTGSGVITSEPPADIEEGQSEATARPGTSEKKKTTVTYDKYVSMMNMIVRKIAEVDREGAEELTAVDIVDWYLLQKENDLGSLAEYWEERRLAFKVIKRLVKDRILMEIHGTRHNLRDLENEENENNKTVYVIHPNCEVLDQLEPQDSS

[1] = molecular target: T2, Mcm6 within purified Cdt1–MCM complexes (budding yeast, UniProt P53091 1-1017); assay: cross-linking; MCM-Cdt1 FLAG complex (200 μg) crosslinked with 20, 50 and 100 μM BS3; denatured with SDS; denaturing anti-FLAG immunoprecipitation; silver staining, bands identified by immunoblotting and mass spectrometry; details: both partners purified
T2 construct: Mcm6, yeast MCM subunit, as part of the Cdt1-MCM complex; source: purified Cdt1-MCM complex
T2 sequence (P53091 whole entry, one chain of several): as the sequence (P53091 whole entry) above

B1: Cdt1 FLAG (natural protein, S. cerevisiae, UniProt P47112 1-604, looked up)
chain: MSGTANSRRKEVLRVPVIDLNRVSDEEQLLPVVRAILLQHDTFLLKNYANKAVLDALLAGLTTKDLPDTSQGFDANFTGTLPLEDDVWLEQYIFDTDPQLRFDRKCRNESLCSIYSRLFKLGLFFAQLCVKSVVSSAELQDCISTSHYATKLTRYFNDNGSTHDGADAGATVLPTGDDFQYLFERDYVTFLPTGVLTIFPCAKAIRYKPSTMATTDNSWVSIDEPDCLLFHTGTLLARWSQGMHTTSPLQIDPRANIVSLTIWPPLTTPISSKGEGTIANHLLEQQIKAFPKVAQQYYPRELSILRLQDAMKFVKELFTVCETVLSLNALSRSTGVPPELHVLLPQISSMMKRKIVQDDILKLLTIWSDAYVVELNSRGELTMNLPKRDNLTTLTNKSRTLAFVERAESWYQQVIASKDEIMTDVPAFKINKRRSSSNSKTVLSSKVQTKSSNANALNNSRYLANSKENFMYKEKMPDSQANLMDRLRERERRSAALLSQRQKRYQQFLAMKMTQVFDILFSLTRGQPYTETYLSSLIVDSLQDSNNPIGTKEASEILAGLQGILPMDISVHQVDGGLKVYRWNSLDKNRFSKLLQIHKSKQQD
notes: Cdt1, S. cerevisiae, FLAG-tagged; also called FLAG-tagged Cdt1; source: purified; alone for the pull-downs, within the MCM-Cdt1 FLAG complex for the crosslinking
B1: binds (Mcm6); binds [1].
